Test results: article PMC6473903, “Isoform-Specific NO Synthesis by Arabidopsis thaliana Nitrate Reductase” (Plants, 2019)
One block for each binder: values may come before it.

Experiments:
[1] = substrate: O=NO; assay: BV:nitrite steady-state assay, A595; format: biochemical, Arabidopsis thaliana; conditions: reduced benzyl viologen as electron donor, pH 7.5, 22-25 °C, anaerobic
Excerpt: BV:nitrite steady-state assay, A595 on NIA2-Mo-heme

[2] = biological target: T1, Arabidopsis thaliana NIA2-Mo-heme fragment (residues 1-625) (Arabidopsis thaliana) (UniProt P11035)
T1 sequence: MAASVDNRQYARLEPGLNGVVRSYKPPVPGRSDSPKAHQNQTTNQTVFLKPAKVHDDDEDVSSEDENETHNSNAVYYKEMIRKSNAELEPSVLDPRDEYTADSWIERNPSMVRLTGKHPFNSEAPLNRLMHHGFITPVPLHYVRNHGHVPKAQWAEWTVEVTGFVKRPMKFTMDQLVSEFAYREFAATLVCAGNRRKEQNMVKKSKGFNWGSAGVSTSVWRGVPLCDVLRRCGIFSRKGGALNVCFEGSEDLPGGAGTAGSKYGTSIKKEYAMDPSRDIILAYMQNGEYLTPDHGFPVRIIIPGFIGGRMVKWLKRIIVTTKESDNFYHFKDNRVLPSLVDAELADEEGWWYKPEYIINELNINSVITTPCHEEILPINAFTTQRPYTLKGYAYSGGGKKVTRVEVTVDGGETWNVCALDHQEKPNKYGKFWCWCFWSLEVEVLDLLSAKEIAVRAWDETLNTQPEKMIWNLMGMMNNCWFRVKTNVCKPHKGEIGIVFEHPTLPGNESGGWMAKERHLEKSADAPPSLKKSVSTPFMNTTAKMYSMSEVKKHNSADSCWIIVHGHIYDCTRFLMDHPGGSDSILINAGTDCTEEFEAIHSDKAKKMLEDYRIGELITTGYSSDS

[3] = biological target: T2, Arabidopsis thaliana NIA1-Mo-heme fragment (residues 1-627) (Arabidopsis thaliana) (UniProt P11832)
T2 sequence: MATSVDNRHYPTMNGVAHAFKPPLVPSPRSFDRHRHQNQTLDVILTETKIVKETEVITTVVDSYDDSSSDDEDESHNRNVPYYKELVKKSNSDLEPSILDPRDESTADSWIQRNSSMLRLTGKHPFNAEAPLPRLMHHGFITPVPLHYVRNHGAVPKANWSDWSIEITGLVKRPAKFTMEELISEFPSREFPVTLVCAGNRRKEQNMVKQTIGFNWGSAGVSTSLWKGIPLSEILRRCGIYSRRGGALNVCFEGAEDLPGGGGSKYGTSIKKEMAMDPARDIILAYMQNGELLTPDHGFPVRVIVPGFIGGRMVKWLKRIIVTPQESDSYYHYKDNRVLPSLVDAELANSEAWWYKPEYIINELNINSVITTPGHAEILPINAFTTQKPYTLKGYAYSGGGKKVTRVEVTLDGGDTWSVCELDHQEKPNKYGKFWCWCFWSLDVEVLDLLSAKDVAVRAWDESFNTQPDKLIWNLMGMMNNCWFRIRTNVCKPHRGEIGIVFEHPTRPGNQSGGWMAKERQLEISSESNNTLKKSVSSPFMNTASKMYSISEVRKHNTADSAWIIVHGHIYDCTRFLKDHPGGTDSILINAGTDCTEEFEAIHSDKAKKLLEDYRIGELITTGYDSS

B1: NIA2-Mo-heme (Arabidopsis thaliana) (protein)
chain: MAASVDNRQYARLEPGLNGVVRSYKPPVPGRSDSPKAHQNQTTNQTVFLKPAKVHDDDEDVSSEDENETHNSNAVYYKEMIRKSNAELEPSVLDPRDEYTADSWIERNPSMVRLTGKHPFNSEAPLNRLMHHGFITPVPLHYVRNHGHVPKAQWAEWTVEVTGFVKRPMKFTMDQLVSEFAYREFAATLVCAGNRRKEQNMVKKSKGFNWGSAGVSTSVWRGVPLCDVLRRCGIFSRKGGALNVCFEGSEDLPGGAGTAGSKYGTSIKKEYAMDPSRDIILAYMQNGEYLTPDHGFPVRIIIPGFIGGRMVKWLKRIIVTTKESDNFYHFKDNRVLPSLVDAELADEEGWWYKPEYIINELNINSVITTPCHEEILPINAFTTQRPYTLKGYAYSGGGKKVTRVEVTVDGGETWNVCALDHQEKPNKYGKFWCWCFWSLEVEVLDLLSAKEIAVRAWDETLNTQPEKMIWNLMGMMNNCWFRVKTNVCKPHKGEIGIVFEHPTLPGNESGGWMAKERHLEKSADAPPSLKKSVSTPFMNTTAKMYSMSEVKKHNSADSCWIIVHGHIYDCTRFLMDHPGGSDSILINAGTDCTEEFEAIHSDKAKKMLEDYRIGELITTGYSSDS
notes: N-terminal Moco + hinge 1 + heme domain fragment, residues 1-625; E. coli TP1004, Ni-NTA and SEC purified
Km [1]: 13.7 ± 3.3 µM
kcat [1]: 1.8 ± 0.3 s⁻¹

B2: NIA2-Mo-heme (Arabidopsis thaliana; H600A) (protein)
chain: MAASVDNRQYARLEPGLNGVVRSYKPPVPGRSDSPKAHQNQTTNQTVFLKPAKVHDDDEDVSSEDENETHNSNAVYYKEMIRKSNAELEPSVLDPRDEYTADSWIERNPSMVRLTGKHPFNSEAPLNRLMHHGFITPVPLHYVRNHGHVPKAQWAEWTVEVTGFVKRPMKFTMDQLVSEFAYREFAATLVCAGNRRKEQNMVKKSKGFNWGSAGVSTSVWRGVPLCDVLRRCGIFSRKGGALNVCFEGSEDLPGGAGTAGSKYGTSIKKEYAMDPSRDIILAYMQNGEYLTPDHGFPVRIIIPGFIGGRMVKWLKRIIVTTKESDNFYHFKDNRVLPSLVDAELADEEGWWYKPEYIINELNINSVITTPCHEEILPINAFTTQRPYTLKGYAYSGGGKKVTRVEVTVDGGETWNVCALDHQEKPNKYGKFWCWCFWSLEVEVLDLLSAKEIAVRAWDETLNTQPEKMIWNLMGMMNNCWFRVKTNVCKPHKGEIGIVFEHPTLPGNESGGWMAKERHLEKSADAPPSLKKSVSTPFMNTTAKMYSMSEVKKHNSADSCWIIVHGHIYDCTRFLMDHPGGSDSILINAGTDCTEEFEAIASDKAKKMLEDYRIGELITTGYSSDS
notes: as for B1
Km ([1]; heme-coordinating His mutated): 10.3 ± 1.2 µM
kcat ([1]; heme-coordinating His mutated): 1.2 ± 0.02 s⁻¹

The remaining lines, values ahead:

apparent kcat of the steady-state NADH:nitrate assay of re-constituted NIA2 (100 nM NIA2-Mo-heme + 5 µM NIA2-FAD, ratio 1:50) [2]: 13.4 s⁻¹
B3: Arabidopsis thaliana NIA2-FAD fragment (residues 626-917) (domain or fragment)
chain: SSPNNSVHGSSAVFSLLAPIGEATPVRNLALVNPRAKVPVQLVEKTSISHDVRKFRFALPVEDMVLGLPVGKHIFLCATINDKLCLRAYTPSSTVDVVGYFELVVKIYFGGVHPRFPNGGLMSQYLDSLPIGSTLEIKGPLGHVEYLGKGSFTVHGKPKFADKLAMLAGGTGITPVYQIIQAILKDPEDETEMYVIYANRTEEDILLREELDGWAEQYPDRLKVWYVVESAKEGWAYSTGFISEAIMREHIPDGLDGSALAMACGPPPMIQFAVQPNLEKMQYNIKEDFLIF

apparent kcat of the steady-state NADH:nitrate assay of re-constituted NIA1 (100 nM NIA1-Mo-heme + 5 µM NIA1-FAD, ratio 1:50) [3]: 9.6 s⁻¹
B4: Arabidopsis thaliana NIA1-FAD fragment (residues 628-917) (domain or fragment)
chain: PNVSVHGASNFGPLLAPIKELTPQKNIALVNPREKIPVRLIEKTSISHDVRKFRFALPSEDQQLGLPVGKHVFVCANINDKLCLRAYTPTSAIDAVGHIDLVVKVYFKDVHPRFPNGGLMSQHLDSLPIGSMIDIKGPLGHIEYKGKGNFLVSGKPKFAKKLAMLAGGTGITPIYQIIQSILSDPEDETEMYVVYANRTEDDILVREELEGWASKHKERLKIWYVVEIAKEGWSYSTGFITEAVLREHIPEGLEGESLALACGPPPMIQFALQPNLEKMGYNVKEDLLIF
